Assay results: article PMC11574045, “A cofactor-induced repressive type of transcription factor condensation can be induced by synthetic peptides to suppress tumorigenesis” (The EMBO Journal, 2024)

System: HEK293FT cells transfected with TF library
Assay: Screening of TF condensates based on fluorescent puncta
Type: cell-based
Conditions: Figure 1B numerical data; TF library screen, one value per transcriptional factor
Procedure, shortened: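 Puncta scoring used automated confocal imaging of fifty random fields per well, after anti-Flag or anti-GAL4 immunofluorescence (Alexa 488) in PFA-fixed cells. HEK293FT cells carried TF library plasmids delivered with PEI (1.6 μg/ml DNA). At 60 h they were switched for 12 h to glucose-containing or glucose-free medium.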

Molecule | Z score of condensed fraction
ATOH8 (protein, UniProt Q96SQ7 1-321, looked up) Transcription factor ATOH8: MKHIPVLEDGPWKTVCVKELNGLKKLKRKGKEPARRANGYKTFRLDLEAPEPRAVATNGLRDRTHRLQPVPVPVPVPVPVAPAVPPRGGTDTAGERGGSRAPEVSDARKRCFALGAVGPGLPTPPPPPPPAPQSQAPGGPEAQPFREPGLRPRILLCAPPARPAPSAPPAPPAPPESTVRPAPPTRPGESSYSSISHVIYNNHQDSSASPRKRPGEATAASSEIKALQQTRRLLANARERTRVHTISAAFEALRKQVPCYSYGQKLSKLAILRIACNYILSLARLADLDYSADHSNLSFSECVQRCTRTLQAEGRAKKRKE | -1.0319
PFDN5 (protein, UniProt Q99471 2-154, looked up) Prefoldin subunit 5: AQSINITELNLPQLEMLKNQLDQEVEFLSTSIAQLKVVQTKYVEAKDCLNVLNKSNEGKELLVPLTSSMYVPGKLHDVEHVLIDVGTGYYVEKTAEDAKDFFKRKIDFLTKQMEKIQPALQEKHAMKQAVMEMMSQKIQQLTALGAAQATAKA | 0.7455
PBX3 (protein, UniProt P40426 1-434, looked up) Pre-B-cell leukemia …: MDDQSRMLQTLAGVNLAGHSVQGGMALPPPPHGHEGADGDGRKQDIGDILHQIMTITDQSLDEAQAKKHALNCHRMKPALFSVLCEIKEKTGLSIRGAQEEDPPDPQLMRLDNMLLAEGVSGPEKGGGSAAAAAAAAASGGSSDNSIEHSDYRAKLTQIRQIYHTELEKYEQACNEFTTHVMNLLREQSRTRPISPKEIERMVGIIHRKFSSIQMQLKQSTCEAVMILRSRFLDARRKRRNFSKQATEILNEYFYSHLSNPYPSEEAKEELAKKCSITVSQVSNWFGNKRIRYKKNIGKFQEEANLYAAKTAVTAAHAVAAAVQNNQTNSPTTPNSGSSGSFNLPNSGDMFMNMQSLNGDSYQGSQVGANVQSQVDTLRHVINQTGGYSDGLGGNSLYSPHNLNANGGWQDATTPSSVTSPTEGPGSVHSDTSN | 0.7478
PCBD (protein, UniProt P61457 2-104, looked up) Pterin-4-alpha-carbinolamine …: AGKAHRLSAEERDQLLPNLRAVGWNELEGRDAIFKQFHFKDFNRAFGFMTRVALQAEKLDHHPEWFNVYNKVHITLSTHECAGLSERDINLASFIEQVAVSMT | -0.6656
PIAS4 (protein, UniProt Q9JM05 2-507, looked up) E3 SUMO-protein ligase PIAS4: AAELVEAKNMVMSFRVSDLQMLLGFVGRSKSGLKHELVTRALQLVQFDCSPELFKKIKELYETRYAKKSAEPGPQAPRPLDPLALHSMPRTPLSGPTVDYPVLYGKYLNGLGRLPTKTLKPEVRLVKLPFFNMLDELLKPTELVPQSAEKLQESPCIFALTPRQVEMIRNSRELQPGVKAVQVVLRICYSDTSCPQEDQYPPNIAVKVNHSYCSVPGYYPSNKPGVEPKRPCRPINLTHLMYLSSATNRITVTWGNYGKSYSVALYLVRQLTSSDLLQRLKTIGVKHPELCKALVKEKLRLDPDSEIATTGVRVSLICPLVKMRLSVPCRAETCAHLQCFDAVFYLQMNEKKPTWMCPVCDKPAAYDQLIIDGLLSKILSECEGADEIEFLAEGSWRPIRAEKEPSCSPQGPILVLGTSDANGLAPASSTPGIGSGLSGPGSAGSGAGAAGSLENGKTGADVVDLTLDSSSSSEDEDEDEDDDEDEDEGPRPKRRCPFQKGLVPAC | -0.6594
ATONAL1 (protein, UniProt Q92858 1-354, looked up) Transcription factor ATOH1: MSRLLHAEEWAEVKELGDHHRQPQPHHLPQPPPPPQPPATLQAREHPVYPPELSLLDSTDPRAWLAPTLQGICTARAAQYLLHSPELGASEAAAPRDEVDGRGELVRRSSGGASSSKSPGPVKVREQLCKLKGGVVVDELGCSRQRAPSSKQVNGVQKQRRLAANARERRRMHGLNHAFDQLRNVIPSFNNDKKLSKYETLQMAQIYINALSELLQTPSGGEQPPPPPASCKSDHHHLRTAASYEGGAGNATAAGAQQASGGSQRPTPPGSCRTRFSAPASAGGYSVQLDALHFSTFEDSALTAMMAQKNLSPSLPGSILQPVQEENSKTSPRSHRSDGEFSPHSHYSDSDEAS | -0.5192
PIAS2 (protein, UniProt O75928 1-621, looked up) E3 SUMO-protein ligase PIAS2: MADFEELRNMVSSFRVSELQVLLGFAGRNKSGRKHDLLMRALHLLKSGCSPAVQIKIRELYRRRYPRTLEGLSDLSTIKSSVFSLDGGSSPVEPDLAVAGIHSLPSTSVTPHSPSSPVGSVLLQDTKPTFEMQQPSPPIPPVHPDVQLKNLPFYDVLDVLIKPTSLVQSSIQRFQEKFFIFALTPQQVREICISRDFLPGGRRDYTVQVQLRLCLAETSCPQEDNYPNSLCIKVNGKLFPLPGYAPPPKNGIEQKRPGRPLNITSLVRLSSAVPNQISISWASEIGKNYSMSVYLVRQLTSAMLLQRLKMKGIRNPDHSRALIKEKLTADPDSEIATTSLRVSLMCPLGKMRLTIPCRAVTCTHLQCFDAALYLQMNEKKPTWICPVCDKKAAYESLILDGLFMEILNDCSDVDEIKFQEDGSWCPMRPKKEAMKVSSQPCTKIESSSVLSKPCSVTVASEASKKKVDVIDLTIESSSDEEEDPPAKRKCIFMSETQSSPTKGVLMYQPSSVRVPSVTSVDPAAIPPSLTDYSVPFHHTPISSMSSDLPGLDFLSLIPVDPQYCPPMFLDSLTSPLTASSTSVTTTSSHESSTHVSSSSSRSETGVITSSGSNIPDIISLD | -0.03329
PGR (protein, UniProt P06401 1-933, looked up) Progesterone receptor: MTELKAKGPRAPHVAGGPPSPEVGSPLLCRPAAGPFPGSQTSDTLPEVSAIPISLDGLLFPRPCQGQDPSDEKTQDQQSLSDVEGAYSRAEATRGAGGSSSSPPEKDSGLLDSVLDTLLAPSGPGQSQPSPPACEVTSSWCLFGPELPEDPPAAPATQRVLSPLMSRSGCKVGDSSGTAAAHKVLPRGLSPARQLLLPASESPHWSGAPVKPSPQAAAVEVEEEDGSESEESAGPLLKGKPRALGGAAAGGGAAAVPPGAAAGGVALVPKEDSRFSAPRVALVEQDAPMAPGRSPLATTVMDFIHVPILPLNHALLAARTRQLLEDESYDGGAGAASAFAPPRSSPCASSTPVAVGDFPDCAYPPDAEPKDDAYPLYSDFQPPALKIKEEEEGAEASARSPRSYLVAGANPAAFPDFPLGPPPPLPPRATPSRPGEAAVTAAPASASVSSASSSGSTLECILYKAEGAPPQQGPFAPPPCKAPGASGCLLPRDGLPSTSASAAAAGAAPALYPALGLNGLPQLGYQAAVLKEGLPQVYPPYLNYLRPDSEASQSPQYSFESLPQKICLICGDEASGCHYGVLTCGSCKVFFKRAMEGQHNYLCAGRNDCIVDKIRRKNCPACRLRKCCQAGMVLGGRKFKKFNKVRVVRALDAVALPQPVGVPNESQALSQRFTFSPGQDIQLIPPLINLLMSIEPDVIYAGHDNTKPDTSSSLLTSLNQLGERQLLSVVKWSKSLPGFRNLHIDDQITLIQYSWMSLMVFGLGWRSYKHVSGQMLYFAPDLILNEQRMKESSFYSLCLTMWQIPQEFVKLQVSQEEFLCMKVLLLLNTIPLEGLRSQTQFEEMRSSYIRELIKAIGLRQKGVVSSSQRFYQLTKLLDNLHDLVKQLHLYCLNTFIQSRALSVEFPEMMSEVIAAQLPKILAGMVKPLLFHKK | 1.815
